Tm data for 26 substances are collected here from the array DNA melting data of Ke et al..

The series in a line: melting temperature; melt of duplexes. The following applies: sodium 0.0675 M; strand 1 µM.
As usually defined, the Tm is the temperature at which the thermal transition is half complete. Regarding “CGACGTGCGGAATGTGCTG+CAGCACATGCAGCACGTCG ((((((((.(.((((((((+)))))))).).))))))))”, the Tm was determined as 59.9 °C. With “CGACGTGCCCTATGTGCTG+CAGCACATTTGGCACGTCG (((((((((..((((((((+))))))))..)))))))))” the figure was 54.1 °C; with “CGACGTGCGGGATGTGCTG+CAGCACATGCTGCACGTCG ((((((((.(.((((((((+)))))))).).))))))))”, 56.9 °C; with “CGACGTGCTGAATGTGCTG+CAGCACATATCGCACGTCG ((((((((...((((((((+))))))))...))))))))”, 50.2 °C. For the substance “CGACGTGCCTTATGTGCTG+CAGCACATAACGCACGTCG ((((((((.((((((((((+)))))))))).))))))))”, the Tm came out at 52.2 °C. To “CGACGTGCATAATGTGCTG+CAGCACATTTAGCACGTCG ((((((((..(((((((((+)))))))))..))))))))” belongs 53.2 °C; to “CGACGTGCAGAATGTGCTG+CAGCACATACTGCACGTCG ((((((((((.((((((((+)))))))).))))))))))”, 57.8 °C; to “CGACGTGCGTTATGTGCTG+CAGCACATAGAGCACGTCG ((((((((..(((((((((+)))))))))..))))))))”, 54.6 °C. With “CGACGTGCCTAATGTGCTG+CAGCACATGGCGCACGTCG ((((((((...((((((((+))))))))...))))))))”, the Tm was 51.1 °C. With “CGACGTGCGAAATGTGCTG+CAGCACATCATGCACGTCG ((((((((...((((((((+))))))))...))))))))”, the Tm is 49.9 °C.

Turning to “CGACGTGCCCAATGTGCTG+CAGCACATCGCGCACGTCG ((((((((.(.((((((((+)))))))).).))))))))”, the Tm turned out to be 48.7 °C.

On to “CGACGTGCCGTATGTGCTG+CAGCACATGCTGCACGTCG ((((((((.(.((((((((+)))))))).).))))))))”, for which the midpoint of thermal melting (Tm) is 51.2 °C. With “CGACGTGCGTTATGTGCTG+CAGCACATAATGCACGTCG ((((((((.((((((((((+)))))))))).))))))))”, the Tm was found to be 57.4 °C. As for “CGACGTGCCTGATGTGCTG+CAGCACATCTGGCACGTCG (((((((((.(((((((((+))))))))).)))))))))”, the Tm was 61.1 °C.

With “CGACGTGCCAAATGTGCTG+CAGCACATGGCGCACGTCG ((((((((...((((((((+))))))))...))))))))”, the Tm is 51.2 °C. In the case of “CGACGTGCGCAATGTGCTG+CAGCACATGTTGCACGTCG ((((((((...((((((((+))))))))...))))))))”, the midpoint of thermal melting (Tm) was 51.5 °C. To “CGACGTGCATAATGTGCTG+CAGCACATCTGGCACGTCG ((((((((...((((((((+))))))))...))))))))” belongs 49.3 °C. For “CGACGTGCAATATGTGCTG+CAGCACATCAAGCACGTCG ((((((((...((((((((+))))))))...))))))))”, the Tm amounted to 48 °C.

In the case of “CGACGTGCGTGATGTGCTG+CAGCACATGGGGCACGTCG ((((((((...((((((((+))))))))...))))))))”, the melting temperature (Tm) turned out to be 51.2 °C. To “CGACGTGCTAAATGTGCTG+CAGCACATGGTGCACGTCG ((((((((...((((((((+))))))))...))))))))” belongs 49.9 °C; to “CGACGTGCCTAATGTGCTG+CAGCACATTGAGCACGTCG ((((((((..(((((((((+)))))))))..))))))))”, 52.7 °C.

For “CGACGTGCTGTATGTGCTG+CAGCACATATAGCACGTCG (((((((((.(((((((((+))))))))).)))))))))”, the Tm came to 57 °C. For the substance “CGACGTGCTGCATGTGCTG+CAGCACATGGGGCACGTCG ((((((((..(((((((((+)))))))))..))))))))”, the Tm is 57 °C. On to “CGACGTGCCAAATGTGCTG+CAGCACATGGTGCACGTCG ((((((((...((((((((+))))))))...))))))))”, for which the Tm came to 48.9 °C. For “CGACGTGCCGCATGTGCTG+CAGCACATAGCGCACGTCG ((((((((...((((((((+))))))))...))))))))”, the melting temperature (Tm) is 53.9 °C. To “CGACGTGCCTCATGTGCTG+CAGCACATTCTGCACGTCG ((((((((...((((((((+))))))))...))))))))” belongs 47.1 °C.
